Measured values published in patent publication US20260250338A1.

Biological target: CD16aF allelic variant of CD16a expressed on Jurkat cells (human) (UniProt P08637)
Assay: flow cytometry on Jurkat cells expressing CD16aF, conditions as in Example 2

Chain of CD16aF allelic variant of CD16a expressed on Jurkat cells (human) (P08637 17-254, change not shown): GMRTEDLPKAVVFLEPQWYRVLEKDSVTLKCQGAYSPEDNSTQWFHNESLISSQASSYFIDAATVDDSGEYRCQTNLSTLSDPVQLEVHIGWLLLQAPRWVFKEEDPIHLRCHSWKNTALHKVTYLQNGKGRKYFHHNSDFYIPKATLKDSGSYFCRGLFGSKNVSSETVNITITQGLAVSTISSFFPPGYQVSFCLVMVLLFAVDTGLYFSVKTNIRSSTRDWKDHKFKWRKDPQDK

- EC50: 23.2 nM
B1: Construct 25 (SEQ ID NO: 94), CD117 × CD16a, CD117 binder SEQ ID NO: 84 N-terminal of DARPin #7 (designed binder)
chain: MRGSHHHHHHGSDLGQKLLKAAQYGQDDEVRILLAAGADVNAKDWAGKTPLHVAAEAGHLEIVEVLLKAGADVNAKDKAGETPLHLAAEQGHLEIVEVLLKAGADVNAQDEWGQTPADLAAYYGLEDIAEVLQKAAGSPTPTPTTPTPTPTTPTPTPTGSDLGQKLLRAAKKGQDDEVRELLKAGADVNAKDEQGWTPLHNAAWKGHLEIVEVLLKAGADVNAKDVFDWTPLHVAAHFGHLEIVEVLLKAGADVNAQDRAGETPADLAAQAGHEDIAEVLQKAA
